Results taken from US20150219635A1 (UCB, published 2015).

What was measured:
[1] = molecular target: T1, Fcε3-4 (sub-fragment of IgE-Fc lacking the Cε2 domains) (human, UniProt P01854-1 209-428, limits assumed); experiment: ITC, Fab titrated into Fcε3-4, sequential binding model; second Fab
T1 construct: domain: Fcε3-4 (Cε3-Cε4); Production and any glycosylation site mutations not described
Experimental: (§1) Experiments were carried out using a Microcal iTC200 calorimeter (GE Healthcare) at 20° C. in PBS buffer pH 7.4. Depending on the final ratio required, 25-30 μM of protein was used in the calorimeter cell and 10-20 fold higher concentrations were used in the syringe. The number and volume of injections were varied as appropriate. Heats of dilution were subtracted from the data before analysis. […] Analyses were carried out using MicroCal Origin, using a 1:1 binding model when IgE-Fc or Fcε3-4 was titrated into Fab, or a sequential 1:1 binding model when Fab was titrated into IgE-Fc or Fcε3-4.
(§2) One way to establish experimentally that IgE-Fc adopts an […] as it flips between two bent conformations, is to determine the number of Fab binding sites that are available for binding: if rigidly and exclusively bent, only one site will initially be accessible, but if it can flip, then two sites are accessible. We therefore studied the interaction between Fab and IgE-Fc by isothermal titration calorimetry (ITC) and compared with the binding to Fcε3-4 which, lacking the Cε2 domains, always has two accessible sites.

[2] = molecular target: T1, Fcε3-4 (sub-fragment of IgE-Fc lacking …); experiment: stopped-flow tryptophan fluorescence, Fab in excess over Fcε3-4, two-step binding; column kon2
Experimental: (§3) Experiments were carried out using a Chirascan Plus (Applied Photophysics Ltd) with a stopped-flow attachment at 20° C. in PBS buffer pH 7.4 and with pseudo-first order protein concentrations varied as required. Fluorescence was excited at 280 nm (1 nm slit width) and emitted fluorescence above 305 nm detected with a long-band pass. 6-10 runs were averaged for each experiment. Data were collected and analyzed using supplied software according to the manufacturer's instructions. Experimental transients were fitted either to single-exponential (Eq.1; [IgE-Fc] or [Fcε3-4]>[Fab] and only Fab¹ binding observable) or double-exponential (Eq.2; [Fab]>[IgE-Fc] or [Fcε3-4] and binding of both Fab¹ and Fab² observable) equations: […]
(§4) where F is the observed fluorescence, ΔFₙ is the fluorescence amplitude change for the nth transient, kobsn is the pseudo-first order rate constant for the nth step and Fₑ is the end-point fluorescence. The bimolecular association rate constants for Fab¹ (k₊₁) and Fab² (k₊₂) binding were determined by fitting the linear concentration dependences of kobs1 and kobs2 to Eq. 3: […]

[3] = molecular target: T1, Fcε3-4 (sub-fragment of IgE-Fc lacking …); experiment: stopped-flow tryptophan fluorescence, Fab in excess over Fcε3-4, two-step binding; column koff
Experimental: as §3, §4

[4] = molecular target: T1, Fcε3-4 (sub-fragment of IgE-Fc lacking …); experiment: ITC, Fab titrated into Fcε3-4, sequential binding model; first Fab
Experimental: as §1, §2

[5] = molecular target: T1, Fcε3-4 (sub-fragment of IgE-Fc lacking …); experiment: ITC, Fcε3-4 titrated into Fab, 1:1 binding model
Experimental: as §1, §2

[6] = molecular target: T1, Fcε3-4 (sub-fragment of IgE-Fc lacking …); experiment: stopped-flow tryptophan fluorescence, Fcε3-4 in excess over Fab (1:1 complex)
Experimental: as §3, §4

[7] = molecular target: T1, Fcε3-4 (sub-fragment of IgE-Fc lacking …); experiment: stopped-flow tryptophan fluorescence, Fab in excess over Fcε3-4, two-step binding; column kon
Experimental: as §3, §4

T1 sequence (P01854 other isoform, or with tags, fused parts or gaps limits assumed): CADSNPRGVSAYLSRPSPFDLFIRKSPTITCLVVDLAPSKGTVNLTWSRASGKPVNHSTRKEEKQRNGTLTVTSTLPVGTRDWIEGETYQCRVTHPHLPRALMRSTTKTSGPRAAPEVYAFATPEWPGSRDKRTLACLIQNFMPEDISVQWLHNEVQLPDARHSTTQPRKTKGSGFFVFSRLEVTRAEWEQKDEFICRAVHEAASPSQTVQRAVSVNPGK

B1: Fab7 (anti-human IgE Fab, human IgG1 Fab format) (Fab, V domains shown)
VH: QVQLQQSGPGLVKPSQTLSLTCGISGDSVSSNSAAWNWLRQSPSRGLEWLGRTYYRSKWYNDYAVSMKSRITINPDTSRNQFSLQLNSVTPEDTAVYYCARDGEISYDYYYYGMDVWGRGTLVTVSS
VL: QSVLTQPPSASGTPGQRVTISCSGSSSNIGNNGVNWYQQVPGKPPKLLIYYDDLLPSGVSDRFSGSKSGTSASLAISGLQSEDEADYYCEAWDDSLDGVVFGGGTKLTVLG
notes: Expressed transiently in CHO cells; also called anti-IgE Fab; Fab^1
Question: For B1, which Kd [1] is on record?
Answer: The Kd was 980 nM.

Question: And the kon [2]?
Answer: The kon was 370000 M⁻¹ s⁻¹.

Question: What about the koff [3] of the same binder?
Answer: The koff was 0.95 s⁻¹.

Question: What about the Kd [4] of the same binder?
Answer: The Kd was 34 nM.

Question: And the Kd [5]?
Answer: Its Kd is 90 nM.

Question: What about the kon [6] of the same binder?
Answer: The kon was 1e+06 M⁻¹ s⁻¹.

Question: And the kon [7]?
Answer: Its kon is 1e+06 M⁻¹ s⁻¹.
